For data set [1], the system named is 786-O (human RCC) cells. Briefly: In vitro cytotoxicity, MTT assay, in absence or presence of neutrophil elastase. It is filed as cell-based. To be noted: 72 h exposure. On the procedure: (§1) 786-O (human RCC), HT-29 (human CRC), NCI-H292 (human NSCLC), NCI-H69 (human SCLC), MX-1 (human TNBC), and SUM149PT (human IBC) cells were acquired from ATCC and cultured according to the provider’s instructions.
(§2) The in vitro cytotoxicity of the SMDCs in comparison to the respective payloads was tested in a panel of cancer cell lines after a 72 h continuous exposure in presence or absence of 20 nM neutrophil elastase using MTT assays (ATCC). IC50 values were determined as the concentration of compound required for 50% inhibition of cell viability.
In general terms: Formazan colour is commonly taken as a measure of viable cells.

The test system of data set [2] is HT-29 (human CRC) cells. Described as above. It is filed as cell-based. To be noted: 72 h exposure. On the procedure:
as §1, §2

Data set [3] concerns NCI-H292 (human NSCLC) cells. The data set is described as above. It is filed as cell-based. To be noted: 72 h exposure. On the procedure:
as §1, §2

Data set [4] concerns SUM149PT (human IBC) cells. The data set is described as above. The format is cell-based. To be noted: 72 h exposure. On the procedure: as §1, §2
Data set [5] can be described thus: Hydrolytic stability in PBS buffer at pH 7.4. To be noted: PBS pH 7.4, 37 °C, 24 h. It is filed as physicochemical. On the procedure:
For hydrolytic stability measurement, compounds 2, 3, 4, 5 and 6 (0.15 mg) were dissolved in acetonitrile/DMSO (4:1, 0.5 mL) and 1 mL of PBS buffer at pH 7.4 was then added. The sample solution was analyzed by HPLC to determine the amount of the test compound and the formation of degradation products over a period of 24 h at 37 °C.

Data set [6] can be described thus: Stability in rat plasma. The format is in vitro ADME. To be noted: 37 °C. Here is the method:
The SMDC compounds 2, 3, 4, 5 and 6 (1 mg) were dissolved in acetonitrile/DMSO (1:1, 0.5 mL). While vortexing, 20 µL of this solution was added to 1 mL rat plasma at 37 °C. The incubation was stopped at respective time intervals by adding acetonitrile/buffer pH 3 (80:20) and the test compounds and formation of degradation products were analyzed by LC and LC/MS.

Data set [7] is described as follows: Stability in human plasma. It is filed as in vitro ADME. To be noted: 37 °C.
Data set [8] has as its target T1, human neutrophil elastase (Homo sapiens, UniProt P08246).
T1 sequence (P08246 30-267): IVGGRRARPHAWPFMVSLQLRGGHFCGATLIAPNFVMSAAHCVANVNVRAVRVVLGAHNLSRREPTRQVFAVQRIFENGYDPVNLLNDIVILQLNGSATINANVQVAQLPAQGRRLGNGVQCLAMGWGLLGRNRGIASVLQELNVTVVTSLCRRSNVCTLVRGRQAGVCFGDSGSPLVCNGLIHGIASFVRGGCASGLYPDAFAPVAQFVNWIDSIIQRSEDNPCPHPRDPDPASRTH
Briefly: Human neutrophil elastase cleavability assay. It is filed as biochemical. To be noted: 5 µM SMDC, 20, 40, 60 nM NE, 1 h, 37°C. On the procedure: For the NE cleavability assay, the SMDC test compound was added to buffer (150 mM NaCl, 10 mM CaCl2, 0.05% BSA) to a final concentration of 5 µM (0.5% DMSO). The reaction was started by adding different concentrations of human NE (0, 20, 40, 60 nM) to the reaction vials. After incubation for 1 h at 37°C, the enzymatic reaction was stopped by precipitation in 50% ACN. Subsequently, the samples were subjected to HPLC-MS analysis to determine the concentration of test compound and of its metabolite.

The nature of data set [9]: Intravenous pharmacokinetics in rat. It is filed as in vivo. To be noted: male Wistar rats, 0.5 mg/kg SMDC i.v., plasma. Here is the method: Pharmacokinetic properties of SMDCs and their respective payloads were characterized in rats. Briefly, male Wistar rats (n = 3) were given a 0.5 mg/kg dose of SMDC formulated in plasma/DMSO (99:1) intravenously (i.v.) via tail vein. Blood was collected at pre-dose, 2, 5, 15, 30, 45, 60 min, 2, 4, 7, 24 h post-dose and then processed to plasma. Plasma was frozen at < −20°C until sample analysis. Plasma samples were analyzed for concentrations of SMDCs and their respective released payloads by LC-MS/MS.
(§3) Pharmacokinetics of SMDCs and their respective payloads from in vivo studies were determined using mean concentration-time profiles. All pharmacokinetic parameters were calculated by non-compartmental methods as previously described ([Perrier and Gibaldi, 1982]).

Data set [10] in a line: Plasma and tumor pharmacokinetics in NCI H69 tumor-bearing mice. It is filed as in vivo. To be noted: single dose Compound 3 10 mg/kg IV, analyte conjugate 3 or released payload 8. Here is the method:
In order to assess the selective concentration of payload to tumor tissue, the pharmacokinetic properties of the SMDC 3 and its payload 8, in plasma and tumor was also characterized in female NMRI nu/nu xenograft mice (Taconic M&B A/S) bearing NCI H69 human small cell lung cancer tumors. The mice were treated i. v. via the tail vein with a single dose of 3 at 10 mg/kg. Plasma and tumor samples were collected at 0.25, 1, 7, and 24 h after treatment (n = 2 mice/group at each time point) and were stored frozen at < −20°C until sample analysis. Concentrations of the SMDCs and their respective payloads were measured by LC-MS/MS.
as §3

Data set [11] has as its system NCI H69 SCLC xenograft. The experiment in a line: In vivo efficacy in NCI H69 SCLC xenograft model. To be noted: 10 mg/kg i.v. weekly, 3 treatment cycles. On the set-up: species or system mice. Here is the method: For the NCI H69 study, immunocompromised mice were inoculated subcutaneously with 1.3 × 10^6 NCI H69 cells in 50% Matrigel/50% Media on day 0. Treatment was started at a mean tumor area in the range of […] in the NCI H69 model (n = 8/group, compound 4 at 5 mg/kg i. v., QW, and compound 6 at 40 mg/kg i. v., QW). In an independent experiment in the same CDX xenograft model compound 3 was tested at 10 mg/kg i. v., QW.

Where two headings read alike, the source gives them in different places.

Broadly, the IC50 is the point on the concentration scale where inhibition reaches its midpoint. As usually defined, the AUC(0-inf) is the area under the concentration-time curve extrapolated to infinity. High values mean more exposure, low ones less exposure. The half-life is the time needed for the level to fall by half in the phase considered. The low end stands for fast loss, the high end for slow loss. Broadly, the AUC(0-t) is exposure summed from dosing to a finite time, without extrapolation to infinity. Broadly, the Cmax is the peak of the concentration-time curve.

Take `CCCNC(=O)Nc1cccc(S(=O)(=O)Nc2cccc([C@@H](CC(=O)O)NC(=O)Nc3ccc(NC(=O)NCCOCCOCCOCCC(=O)N[C@@H](CC(=O)O)C(=O)N4CCC[C@H]4C(=O)N[C@H](C(=O)N=S(C)(=O)Cc4cc5cc(c4)OC(C)CCOc4cc(F)ccc4-c4nc(ncc4F)N5)C(C)C)cc3)c2)c1` (stereo partly shown) [Compound 3]: the 50% inhibitory concentration (IC50) in data set [1] (with 20 nM neutrophil elastase, read-out: IC50 786–0 + neutrophil elastase) is 3.1 nM; in [1] (without neutrophil elastase, read-out: IC50 786–0), more than 1000 nM; in data set [2] (with 20 nM neutrophil elastase, read-out: IC50 HT29 + neutrophil elastase) it was 1.9 nM; in data set [2] (without neutrophil elastase, read-out: IC50 HT29), 990 nM; in data set [3] (with 20 nM neutrophil elastase, read-out: IC50 NCI-H292 + neutrophil elastase) it was 4.5 nM; in data set [3] (without neutrophil elastase, read-out: IC50 NCI-H292), 880 nM. Besides, the IC50 in data set [4] (with 20 nM neutrophil elastase, read-out: IC50 SUM149 PT + neutrophil elastase) was 1.2 nM; in [4] (without neutrophil elastase, read-out: IC50 SUM149PT), 770 nM. In [5], the “Stability in buffer pH 7.4” value is listed as “highly stable”. Also, in [6], the “Stability in rat plasma” value is “highly stable”. Also, the “Stability in human plasma” value in data set [7] was “highly stable”. Besides, in data set [8], the “Cleavage by human NE” value is “essentially completely cleaved”. Moreover, in data set [9], the Vss entry was “comparable to plasma volume”. In data set [9] (molar basis, 0.5 mg/kg), the “payload/parent AUC ratio” value is on record as 0.307. In data set [9] (rat, in vivo, iv), this compound gave an AUC(0-inf) of 0.801 ± 0.126 µM·h. The half-life in data set [9] (rat, in vivo, iv) was 14.4 ± 3 min. In data set [9] (rat, in vivo, iv, read-out: CLp), the clearance was determined as 6.6 ± 0.95 mL/min/kg. Also, the Vd in data set [9] (rat, in vivo, iv, read-out: Vss) was 0.0366 ± 0.0053 L/kg. The AUC(0-t) in data set [10] (mouse, in vivo, plasma) turned out to be 43 µM·h. Also, the Cmax in [10] (mouse, in vivo, plasma) was 49 µM. Moreover, the “tumor/plasma AUC ratio” value in data set [10] is 0.126. Moreover, the “Tumor growth NCI H69” value in [11] is given as “No significant inhibition”.
